Among the data in the supplement of paper PMC10567573 are protein stability index values, retold here.

The labels stand for the following.
B1: SETD8 (parent)
chain: FVVEYHGDLIEITDAKKREALYAQ
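Further: lentivirally expressed fusions sorted by FACS into six bins by GFP to DsRed ratio, PSI derived from sequencing read proportions per bin multiplied by bin number.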

Variants of B1 are the subject of this data set. As to the kind of experiment: protein stability index of a GFP-peptide fusion (GPS, HEK-293T) (PSI 1-6); higher = more stable. The following applies: c terminus: a fixed tail appended.
For the variant FVVEYHGDLIEITDATKREALYAQ, the protein stability index is 1.28.
Consider FVVEYHGDLIEITDADKREALYAQ, for which the protein stability index was 2.05.
On to FVVEYHGDLIEITDANKREALYAQ, for which the protein stability index came out at 1.68.
As to FVVEYHGDLIEITDAIKREALYAQ, the protein stability index was 1.78.
The figure for FVVEYHGDLIEITDAAKREALYAQ is 1.7; for FVVEYHGDLIEITDAQKREALYAQ it is 2.48; for FVVEYHGDLIEITDACKREALYAQ it is 1.
Take FVVEYHGDLIEITDASKREALYAQ: the protein stability index was 2.59.
On to FVVEYHGDLIEITDAHKREALYAQ, for which the protein stability index came to 2.3.
Take FVVEYHGDLIEITDAMKREALYAQ: the protein stability index came to 1.59.
FVVEYHGDLIEITDAEKREALYAQ: the protein stability index was determined as 2.08.
On to FVVEYHGDLIEITDAWKREALYAQ, for which the protein stability index was found to be 3.04.
In the case of FVVEYHGDLIEITDAGKREALYAQ, the protein stability index is 1.51.
As for FVVEYHGDLIEITDAFKREALYAQ, the protein stability index is 2.13.
For FVVEYHGDLIEITDARKREALYAQ, the protein stability index came out at 2.07.
The figure for FVVEYHGDLIEITDAPKREALYAQ is 1.5; for FVVEYHGDLIEITDAVKREALYAQ it is 1.76; for FVVEYHGDLIEVTDAKKREALYAQ it is 2.18.
The value for FVVEYHGDLIEPTDAKKREALYAQ was 2.36.
The value for FVVEYHGDLIERTDAKKREALYAQ was 2.48; that for FVVEYHGDLIEQTDAKKREALYAQ was 2.77.
Take FVVEYHGDLIETTDAKKREALYAQ: the protein stability index was found to be 2.02.
As for FVVEYHGDLIELTDAKKREALYAQ, the protein stability index was 2.55.
As to FVVEYHGDLIEMTDAKKREALYAQ, the protein stability index was determined as 1.72.
With FVVEYHGDLIESTDAKKREALYAQ, the protein stability index worked out at 2.09.
Turning to FVVEYHGDLIEWTDAKKREALYAQ, the protein stability index was found to be 2.45.
Consider FVVEYHGDLIEYTDAKKREALYAQ, for which the protein stability index was 1.56.
Regarding FVVEYHGDLIENTDAKKREALYAQ, the protein stability index is 2.54.
Turning to FVVEYHGDLIEITDAKDREALYAQ, the protein stability index was determined as 1.65.
For the variant FVVEYHGDLIEITDAKFREALYAQ, the protein stability index worked out at 2.17.
Turning to FVVEYHGDLIEITDAKNREALYAQ, the protein stability index amounted to 2.06.
In the case of FVVEYHGDLIEITDAKEREALYAQ, the protein stability index is 2.14.
On to FVVEYHGDLIEITDAKQREALYAQ, for which the protein stability index was 1.85.
The value for FVVEYHGDLIEITDAKSREALYAQ was 1.81; that for FVVEYHGDLIEITDAKMREALYAQ was 2.46; that for FVVEYHGDLIEITDAKYREALYAQ was 1.34.
For the variant FVVEYHGDLIEITDAKTREALYAQ, the protein stability index stood at 1.6.
In the case of FVVEYHGDLIEITDAKAREALYAQ, the protein stability index was determined as 1.59.
FVVEYHGDLIEITDAKLREALYAQ: the protein stability index was determined as 1.73.
Turning to FVVEYHGDLIEITDAKHREALYAQ, the protein stability index was determined as 1.61.
As for FVVEYHGDLIEITDAKGREALYAQ, the protein stability index worked out at 1.26.
In the case of FVVEYHGDLIEITDAKRREALYAQ, the protein stability index amounted to 1.33.
The figure for FVVEYHGDLIEITDAKIREALYAQ is 1.75.
Take FVVEYHGDLIEITDAKCREALYAQ: the protein stability index stood at 2.17.
Consider FVVEYHGDLIEITDAKWREALYAQ, for which the protein stability index is 1.84.
As for FVVEYHGDLIEITDAKVREALYAQ, the protein stability index was found to be 2.07.
Take FVVEYHGDLIEITSAKKREALYAQ: the protein stability index worked out at 1.88.
In the case of FVVEYHGDLIEITWAKKREALYAQ, the protein stability index worked out at 1.31.
In the case of FVVEYHGDLIEITRAKKREALYAQ, the protein stability index is 1.72.
For the variant FVVEYHGDLIEITQAKKREALYAQ, the protein stability index worked out at 2.13.
FVVEYHGDLIEITAAKKREALYAQ: the protein stability index is 2.08.
As to FVVEYHGDLIEITIAKKREALYAQ, the protein stability index amounted to 2.69.
The value for FVVEYHGDLIEITVAKKREALYAQ was 1.45.
For the variant FVVEYHGDLIEITCAKKREALYAQ, the protein stability index came out at 1.46.
The value for FVVEYHGDLIEITHAKKREALYAQ was 1.52; that for FVVEYHGDLIEITLAKKREALYAQ was 1.16.
On to FVVEYHGDLIEITGAKKREALYAQ, for which the protein stability index was 3.5.
Turning to FVVEYHGDLIEITTAKKREALYAQ, the protein stability index worked out at 1.21.
FVVEYHGDLIEITPAKKREALYAQ: the protein stability index amounted to 1.37.
The figure for FVVEYHGDLIEITNAKKREALYAQ is 1.65.
As for FVVEYHGDLIEITMAKKREALYAQ, the protein stability index worked out at 1.95.
Regarding FVVEYHGDLIEITFAKKREALYAQ, the protein stability index came out at 2.45.
On to FVVEYHGDLIEITEAKKREALYAQ, for which the protein stability index was 2.75.
Consider FVVEYHGDLIEITKAKKREALYAQ, for which the protein stability index was determined as 2.58.
The value for FVVEYHGDLIEITDAKKNEALYAQ was 2.31; that for FVVEYHGDLIEITDAKKPEALYAQ was 1.56.
On to FVVEYHGDLIEITDAKKWEALYAQ, for which the protein stability index worked out at 2.33.
The value for FVVEYHGDLIEITDAKKQEALYAQ was 1.46; that for FVVEYHGDLIEITDAKKIEALYAQ was 3.16; that for FVVEYHGDLIEITDAKKSEALYAQ was 2.04.
In the case of FVVEYHGDLIEITDAKKDEALYAQ, the protein stability index is 2.27.
In the case of FVVEYHGDLIEITDAKKGEALYAQ, the protein stability index is 1.24.
On to FVVEYHGDLIEITDAKKHEALYAQ, for which the protein stability index came to 2.39.
For the variant FVVEYHGDLIEITDAKKVEALYAQ, the protein stability index was 1.82.
Turning to FVVEYHGDLIEITDAKKMEALYAQ, the protein stability index amounted to 2.98.
In the case of FVVEYHGDLIEITDAKKFEALYAQ, the protein stability index amounted to 1.75.
With FVVEYHGDLIEITDAKKLEALYAQ, the protein stability index was found to be 1.87.
On to FVVEYHGDLIEITDAKKAEALYAQ, for which the protein stability index amounted to 1.74.
In the case of FVVEYHGDLIEITDAKKYEALYAQ, the protein stability index was 2.2.
On to FVVEYHGDLIEITDAKKTEALYAQ, for which the protein stability index stood at 1.57.
The value for FVVEYHGDLIEITDAKKCEALYAQ was 2.32; that for FVVEYHGDLIEIFDAKKREALYAQ was 3.25; that for FVVEYHGDLIEIRDAKKREALYAQ was 2.07.
In the case of FVVEYHGDLIEIYDAKKREALYAQ, the protein stability index was 1.78.
The value for FVVEYHGDLIEIDDAKKREALYAQ was 1.97; that for FVVEYHGDLIEILDAKKREALYAQ was 2.63.
Take FVVEYHGDLIEISDAKKREALYAQ: the protein stability index worked out at 2.46.
FVVEYHGDLIEIHDAKKREALYAQ: the protein stability index was 2.02.
For the variant FVVEYHGDLIEIIDAKKREALYAQ, the protein stability index was 2.24.
As to FVVEYHGDLIEICDAKKREALYAQ, the protein stability index came out at 2.42.
The figure for FVVEYHGDLIEIMDAKKREALYAQ is 1.5.
The value for FVVEYHGDLIEIKDAKKREALYAQ was 2.79; that for FVVEYHGDLIEIEDAKKREALYAQ was 1.76; that for FVVEYHGDLIEIQDAKKREALYAQ was 3.21.
